Data from patent publication US9289507B2, “Carriers for improved drug delivery” (Extend Biosciences, Inc., priority 2012, dated 2016).
Where two headings read alike, the source gives them in different places.

B1: FGF21: Fibroblast growth factor 21 in its natural state (SEQ ID:2), literature values (protein, listed as Homo sapiens)
chain: HPIPDSSPLLQFGGQVRQRYLYTDDAQQTEAHLEIREDGTVGGAADQSPESLLQLKALKPGVIQILGVKTSRFLCQRPDGALYGSLHFDPEACSFRELLLEDGYNVYQSEAHGLPLHLPGNKSPHRDPAPRGPARFLPLPGLPPALPEPPGILAPQPPDVGSSDPLSMVGPSQGRSPSYAS

Experiments:
[1] = design: species or system Sprague Dawley rats; conditions: rat, in vivo, sc, 1 mg/kg
Procedure: Infliximab, sold as a lyophilized powder with the appropriate salts (Hannah Pharmaceuticals), was resuspended to a concentration of 10 mg/mL with water. The Vitamin D3-PEG-NHS carrier was resuspended at a concentration of 10 mg/mL in DMSO. The Vitamin D3-PEG-NHS carrier and the infliximab were then mixed at a molar ratio of 5:1 and 10:1 carrier to infliximab. […] By using an NHS version of the carrier, more than one carrier can be attached to a therapeutic protein and this can be experimentally controlled by altering the molar ratio of carrier to target therapeutic in the reaction. In this example, a target distribution of 2-4 carriers was set as a desired parameter.
The dose was 1 mg/kg in all test groups with three rats per group. Serum samples were collected pre-dosing and at various times from 5 min to 48 hrs post injection. Serum samples were then analyzed by ELISA using an ELISA kit specific for determining the levels of infliximab in serum (Promonitor™, Progenika™). Pharmacokinetic parameters were determined using WinNonLin.

[2] = 1 mg/kg, cited from earlier work
[3] = FGF21 in its natural state; cited from earlier work

Row | Molecule | serum concentration at 24 hr [1] [ng/mL] | serum concentration at 48 hr [1] [ng/mL] | Cmax ([2]; intravenous route) [nM] | Cmax ([2]; subcutaneous route) [nM] | half-life in serum [3] [h]
1 | infliximab: Monoclonal antibody that binds tumor necrosis factor alpha (TNF-α) [reference compound] | 2100 | 4800 |  |  | 
2 | B1 |  |  | 1890 | 73 | 1.1
